Assays:
[1] = target: GLUT1/SLC2A1 (glucose transporter type 1) (UniProt P11166); test: flow cytometry, HEK293T cells with siSMVT A (endogenous receptor), saturating ligand, Alexa488 anti-mouse IgG1
[2] = target: GLUT1/SLC2A1 (glucose transporter type 1) (UniProt P11166); test: flow cytometry, HEK293T cells with control siRNA siLUC (endogenous receptor), saturating ligand, Alexa488 anti-mouse IgG1
[3] = target: CAT1/SLC7A1 (UniProt P30825); test: flow cytometry, HEK293T cells with siSMVT A (endogenous receptor), saturating ligand, Alexa488 anti-mouse IgG1
[4] = target: CAT1/SLC7A1 (UniProt P30825); test: flow cytometry, HEK293T cells with control siRNA siLUC (endogenous receptor), saturating ligand, Alexa488 anti-mouse IgG1
[5] = target: XPR1/SLC53A1; test: flow cytometry, HEK293T cells with siSMVT A (endogenous receptor), saturating ligand, Alexa488 anti-mouse IgG1
[6] = target: XPR1/SLC53A1; test: flow cytometry, HEK293T cells with control siRNA siLUC (endogenous receptor), saturating ligand, Alexa488 anti-mouse IgG1
[7] = target: T1, sodium-dependent multivitamin transporter / solute carrier family 5 member 6 (SMVT/SLC5A6) (human, UniProt Q9Y289 1-635); test: flow cytometry on HEK293T cells, siSMVT A against siLUC control
T1 construct: also called SLC5A6/SMVT
T1 sequence: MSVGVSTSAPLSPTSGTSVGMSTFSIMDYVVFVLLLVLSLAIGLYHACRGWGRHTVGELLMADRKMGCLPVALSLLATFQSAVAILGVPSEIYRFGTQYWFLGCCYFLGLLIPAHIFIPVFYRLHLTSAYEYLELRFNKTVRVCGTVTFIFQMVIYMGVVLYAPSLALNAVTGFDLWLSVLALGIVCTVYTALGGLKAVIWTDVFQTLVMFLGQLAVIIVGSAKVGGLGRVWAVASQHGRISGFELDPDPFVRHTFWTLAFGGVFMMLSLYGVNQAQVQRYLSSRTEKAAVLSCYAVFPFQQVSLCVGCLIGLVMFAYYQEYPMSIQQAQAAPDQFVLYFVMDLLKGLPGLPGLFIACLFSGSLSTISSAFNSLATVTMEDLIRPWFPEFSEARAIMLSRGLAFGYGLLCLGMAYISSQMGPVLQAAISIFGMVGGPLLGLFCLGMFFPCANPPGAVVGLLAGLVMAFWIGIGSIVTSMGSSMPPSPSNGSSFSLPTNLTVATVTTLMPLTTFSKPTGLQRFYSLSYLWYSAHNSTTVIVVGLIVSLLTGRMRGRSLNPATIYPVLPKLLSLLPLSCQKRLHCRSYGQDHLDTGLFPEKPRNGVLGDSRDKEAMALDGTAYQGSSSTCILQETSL

Chain of XPR1/SLC53A1 (Q9UH99 whole entry): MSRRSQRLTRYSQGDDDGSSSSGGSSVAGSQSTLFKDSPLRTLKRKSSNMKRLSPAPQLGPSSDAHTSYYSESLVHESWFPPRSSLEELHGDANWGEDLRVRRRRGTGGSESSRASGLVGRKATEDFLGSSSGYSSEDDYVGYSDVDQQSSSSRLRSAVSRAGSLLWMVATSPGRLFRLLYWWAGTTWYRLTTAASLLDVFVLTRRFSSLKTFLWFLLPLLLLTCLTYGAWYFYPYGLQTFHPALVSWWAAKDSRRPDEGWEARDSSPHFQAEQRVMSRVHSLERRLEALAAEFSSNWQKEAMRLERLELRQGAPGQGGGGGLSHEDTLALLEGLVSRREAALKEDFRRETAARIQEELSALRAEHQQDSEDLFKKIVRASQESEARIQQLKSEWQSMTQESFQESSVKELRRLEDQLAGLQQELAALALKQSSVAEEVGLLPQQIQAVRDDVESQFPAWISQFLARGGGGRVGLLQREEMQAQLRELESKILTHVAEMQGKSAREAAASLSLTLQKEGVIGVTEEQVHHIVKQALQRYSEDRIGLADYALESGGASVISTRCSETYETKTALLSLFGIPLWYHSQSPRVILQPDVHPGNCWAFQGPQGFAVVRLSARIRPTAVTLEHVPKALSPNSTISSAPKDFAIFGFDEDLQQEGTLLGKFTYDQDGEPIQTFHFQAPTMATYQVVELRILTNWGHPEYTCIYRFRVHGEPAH
Chain of CAT1/SLC7A1 (P30825 whole entry): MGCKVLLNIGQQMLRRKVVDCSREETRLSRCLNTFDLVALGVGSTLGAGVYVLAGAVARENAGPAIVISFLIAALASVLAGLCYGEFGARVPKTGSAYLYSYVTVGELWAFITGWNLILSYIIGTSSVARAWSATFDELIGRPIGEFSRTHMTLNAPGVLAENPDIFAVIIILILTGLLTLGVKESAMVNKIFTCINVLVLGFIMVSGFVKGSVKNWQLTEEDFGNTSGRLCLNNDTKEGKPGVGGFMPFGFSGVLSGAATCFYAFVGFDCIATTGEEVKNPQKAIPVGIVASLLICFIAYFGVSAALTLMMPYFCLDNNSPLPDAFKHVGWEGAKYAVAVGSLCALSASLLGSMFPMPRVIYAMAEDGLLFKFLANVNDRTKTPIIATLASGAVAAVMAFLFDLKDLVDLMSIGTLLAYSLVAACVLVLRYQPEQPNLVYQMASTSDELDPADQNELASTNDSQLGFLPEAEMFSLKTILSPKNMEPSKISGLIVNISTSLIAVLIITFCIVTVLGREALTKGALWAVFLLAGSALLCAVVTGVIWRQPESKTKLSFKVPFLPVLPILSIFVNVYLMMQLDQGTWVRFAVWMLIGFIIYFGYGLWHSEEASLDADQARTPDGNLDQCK
Chain of GLUT1/SLC2A1 (glucose transporter type 1) (P11166 whole entry): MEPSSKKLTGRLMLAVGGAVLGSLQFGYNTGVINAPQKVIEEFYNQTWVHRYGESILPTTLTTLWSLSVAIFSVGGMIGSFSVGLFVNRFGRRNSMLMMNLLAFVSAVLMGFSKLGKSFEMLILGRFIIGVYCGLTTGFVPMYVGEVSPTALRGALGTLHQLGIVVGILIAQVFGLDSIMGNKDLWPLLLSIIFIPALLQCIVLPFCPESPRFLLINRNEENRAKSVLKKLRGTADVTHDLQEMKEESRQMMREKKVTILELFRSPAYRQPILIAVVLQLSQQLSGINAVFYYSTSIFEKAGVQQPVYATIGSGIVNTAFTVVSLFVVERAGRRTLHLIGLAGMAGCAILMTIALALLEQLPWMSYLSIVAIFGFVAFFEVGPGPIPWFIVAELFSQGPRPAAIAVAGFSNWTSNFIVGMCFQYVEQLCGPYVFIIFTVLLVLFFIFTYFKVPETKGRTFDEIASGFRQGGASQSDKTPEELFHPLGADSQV

**Q.** For “human T-cell leukemia virus type 2 (HTLV2)-RBD, fusion protein with mFC (Fc fusion)”, which relative specific binding (delta of the geometric mean of the fluorescence intensity) [1] is on record?
**A.** 21.3

**Q.** And the relative specific binding (delta of the geometric mean of the fluorescence intensity) [2]?
**A.** 18.3

**Q.** Which results are given for “RBD derived from the bovine leukemia virus (BLV), fusion protein with mFC (Fc fusion)”?
**A.** relative specific binding (delta of the geometric mean of the fluorescence intensity) [3]: 110; relative specific binding (delta of the geometric mean of the fluorescence intensity) [4]: 110

**Q.** Which relative specific binding (delta of the geometric mean of the fluorescence intensity) [5] does the source give for “RBD from a xenotropic murine retrovirus (XRBD), fusion protein with mFC (Fc fusion)” here?
**A.** 14.6

**Q.** And the relative specific binding (delta of the geometric mean of the fluorescence intensity) [6]?
**A.** 12.6

B1: PERV-B RBD ligand fused to a mouse Fc fragment (SEQ ID NO: 13) (Fc fusion)
chain: KRLIDSSNPHRPLSLTWLIIDPDTGVTVNSTRGVAPRGTWWPELHFCLRLINPAVKSTPPNLVRSYGFYCCPGTEKEKYCGGSEESFCRRWSCVTSNDGDWKWPISLQDRVKFSFVNSGPGKYKVMKLYKDKSCSPSDLDYLKISFTEKGKQENIQKWINGMSWGIVFYKYGGGAGSTLTIRLRIEAGTEPPVAVGSVDVPRDCGCKPCICTVPEVSSVFIFPPKPKDVLTITLTPKVTCVVVDISKDDPEVQFSWFVDDVEVHTAQTQPREEQFNSTFRSVSELPIMHQDWLNGKEFKCRVNSAAFPAPIEKTISKTKGRPKAPQVYTIPPPKEQMAKDKVSLTCMITDFFPEDITVEWQWNGQPAENYKNTQPIMDTDGSYFVYSKLNVQKSNWEAGNTFTCSVLHEGLHNHHTEKSLSHSPGK
**Q.** For B1, which “fold drop of specific binding with anti-SMVT siRNA against siLUC” value [7] is on record?
**A.** > 2 fold

— patent US20220003782A1 (METAFORA BIOSYSTEMS, published 2022)
